From IntAct's records for PubMed 34606829

B1: ALK tyrosine kinase receptor (Homo sapiens), Q9UM73 (parent)
chain: MGAIGLLWLLPLLLSTAAVGSGMGTGQRAGSPAAGPPLQPREPLSYSRLQRKSLAVDFVVPSLFRVYARDLLLPPSSSELKAGRPEARGSLALDCAPLLRLLGPAPGVSWTAGSPAPAEARTLSRVLKGGSVRKLRRAKQLVLELGEEAILEGCVGPPGEAAVGLLQFNLSELFSWWIRQGEGRLRIRLMPEKKASEVGREGRLSAAIRASQPRLLFQIFGTGHSSLESPTNMPSPSPDYFTWNLTWIMKDSFPFLSHRSRYGLECSFDFPCELEYSPPLHDLRNQSWSWRRIPSEEASQMDLLDGPGAERSKEMPRGSFLLLNTSADSKHTILSPWMRSSSEHCTLAVSVHRHLQPSGRYIAQLLPHNEAAREILLMPTPGKHGWTVLQGRIGRPDNPFRVALEYISSGNRSLSAVDFFALKNCSEGTSPGSKMALQSSFTCWNGTVLQLGQACDFHQDCAQGEDESQMCRKLPVGFYCNFEDGFCGWTQGTLSPHTPQWQVRTLKDARFQDHQDHALLLSTTDVPASESATVTSATFPAPIKSSPCELRMSWLIRGVLRGNVSLVLVENKTGKEQGRMVWHVAAYEGLSLWQWMVLPLLDVSDRFWLQMVAWWGQGSRAIVAFDNISISLDCYLTISGEDKILQNTAPKSRNLFERNPNKELKPGENSPRQTPIFDPTVHWLFTTCGASGPHGPTQAQCNNAYQNSNLSVEVGSEGPLKGIQIWKVPATDTYSISGYGAAGGKGGKNTMMRSHGVSVLGIFNLEKDDMLYILVGQQGEDACPSTNQLIQKVCIGENNVIEEEIRVNRSVHEWAGGGGGGGGATYVFKMKDGVPVPLIIAAGGGGRAYGAKTDTFHPERLENNSSVLGLNGNSGAAGGGGGWNDNTSLLWAGKSLQEGATGGHSCPQAMKKWGWETRGGFGGGGGGCSSGGGGGGYIGGNAASNNDPEMDGEDGVSFISPLGILYTPALKVMEGHGEVNIKHYLNCSHCEVDECHMDPESHKVICFCDHGTVLAEDGVSCIVSPTPEPHLPLSLILSVVTSALVAALVLAFSGIMIVYRRKHQELQAMQMELQSPEYKLSKLRTSTIMTDYNPNYCFAGKTSSISDLKEVPRKNITLIRGLGHGAFGEVYEGQVSGMPNDPSPLQVAVKTLPEVCSEQDELDFLMEALIISKFNHQNIVRCIGVSLQSLPRFILLELMAGGDLKSFLRETRPRPSQPSSLAMLDLLHVARDIACGCQYLEENHFIHRDIAARNCLLTCPGPGRVAKIGDFGMARDIYRASYYRKGGCAMLPVKWMPPEAFMEGIFTSKTDTWSFGVLLWEIFSLGYMPYPSKSNQEVLEFVTSGGRMDPPKNCPGPVYRIMTQCWQHQPEDRPNFAIILERIEYCTQDPDVINTALPIEYGPLVEEEEKVPVRPKDPEGVPPLLVSQQAKREEERSPAAPPPLPTTSSGKAAKKPTAAEISVRVPRGPAVEGGHVNMAFSQSNPPSELHKVHGSRNKPTSLWNPTYGSWFTEKPTKKNNPIAKKEPHDRGNLGLEGSCTVPPNVATGRLPGASLLLEPSSLTANMKEVPLFRLRHFPCGNVNYGYQQQGLPLEAATAPGAGHYEDTILKSKNSMNQPGP
B2: ALK tyrosine kinase receptor (Homo sapiens), Q9UM73 (parent)
chain: B1 chain
partner: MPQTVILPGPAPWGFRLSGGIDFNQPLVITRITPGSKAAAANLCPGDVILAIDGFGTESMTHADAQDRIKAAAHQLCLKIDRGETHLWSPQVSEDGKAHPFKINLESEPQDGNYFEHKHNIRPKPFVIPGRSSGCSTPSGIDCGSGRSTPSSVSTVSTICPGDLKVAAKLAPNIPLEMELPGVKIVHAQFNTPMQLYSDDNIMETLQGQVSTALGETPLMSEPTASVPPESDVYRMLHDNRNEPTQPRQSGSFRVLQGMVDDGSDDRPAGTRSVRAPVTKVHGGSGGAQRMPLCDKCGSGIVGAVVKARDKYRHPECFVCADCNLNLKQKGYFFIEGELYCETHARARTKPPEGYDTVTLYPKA
B3: ALK tyrosine kinase receptor (Homo sapiens), Q9UM73 (parent)
chain: B1 chain
partner: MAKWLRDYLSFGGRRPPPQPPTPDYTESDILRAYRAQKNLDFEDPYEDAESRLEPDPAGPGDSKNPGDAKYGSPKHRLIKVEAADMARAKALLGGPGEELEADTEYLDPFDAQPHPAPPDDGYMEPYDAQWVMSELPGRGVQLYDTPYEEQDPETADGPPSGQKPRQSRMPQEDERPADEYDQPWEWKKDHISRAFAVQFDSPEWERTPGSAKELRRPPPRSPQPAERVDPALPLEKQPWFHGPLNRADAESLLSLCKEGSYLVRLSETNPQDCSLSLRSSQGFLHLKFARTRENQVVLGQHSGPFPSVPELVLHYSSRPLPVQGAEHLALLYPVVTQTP
B4: ALK tyrosine kinase receptor (Homo sapiens), Q9UM73 (parent)
chain: B1 chain
partner: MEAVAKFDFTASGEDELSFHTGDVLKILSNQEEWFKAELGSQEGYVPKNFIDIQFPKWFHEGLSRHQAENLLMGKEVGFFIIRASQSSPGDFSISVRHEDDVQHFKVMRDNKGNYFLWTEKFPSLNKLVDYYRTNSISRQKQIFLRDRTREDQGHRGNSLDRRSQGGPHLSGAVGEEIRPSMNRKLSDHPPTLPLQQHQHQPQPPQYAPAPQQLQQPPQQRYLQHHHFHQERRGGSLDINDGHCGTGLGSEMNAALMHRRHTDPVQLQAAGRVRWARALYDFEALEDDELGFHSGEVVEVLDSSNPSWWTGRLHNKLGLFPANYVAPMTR

Variants of: B1
Conditions: with abl1_human ABL1, P00519
Chain of abl1_human ABL1, P00519 (P00519 whole entry): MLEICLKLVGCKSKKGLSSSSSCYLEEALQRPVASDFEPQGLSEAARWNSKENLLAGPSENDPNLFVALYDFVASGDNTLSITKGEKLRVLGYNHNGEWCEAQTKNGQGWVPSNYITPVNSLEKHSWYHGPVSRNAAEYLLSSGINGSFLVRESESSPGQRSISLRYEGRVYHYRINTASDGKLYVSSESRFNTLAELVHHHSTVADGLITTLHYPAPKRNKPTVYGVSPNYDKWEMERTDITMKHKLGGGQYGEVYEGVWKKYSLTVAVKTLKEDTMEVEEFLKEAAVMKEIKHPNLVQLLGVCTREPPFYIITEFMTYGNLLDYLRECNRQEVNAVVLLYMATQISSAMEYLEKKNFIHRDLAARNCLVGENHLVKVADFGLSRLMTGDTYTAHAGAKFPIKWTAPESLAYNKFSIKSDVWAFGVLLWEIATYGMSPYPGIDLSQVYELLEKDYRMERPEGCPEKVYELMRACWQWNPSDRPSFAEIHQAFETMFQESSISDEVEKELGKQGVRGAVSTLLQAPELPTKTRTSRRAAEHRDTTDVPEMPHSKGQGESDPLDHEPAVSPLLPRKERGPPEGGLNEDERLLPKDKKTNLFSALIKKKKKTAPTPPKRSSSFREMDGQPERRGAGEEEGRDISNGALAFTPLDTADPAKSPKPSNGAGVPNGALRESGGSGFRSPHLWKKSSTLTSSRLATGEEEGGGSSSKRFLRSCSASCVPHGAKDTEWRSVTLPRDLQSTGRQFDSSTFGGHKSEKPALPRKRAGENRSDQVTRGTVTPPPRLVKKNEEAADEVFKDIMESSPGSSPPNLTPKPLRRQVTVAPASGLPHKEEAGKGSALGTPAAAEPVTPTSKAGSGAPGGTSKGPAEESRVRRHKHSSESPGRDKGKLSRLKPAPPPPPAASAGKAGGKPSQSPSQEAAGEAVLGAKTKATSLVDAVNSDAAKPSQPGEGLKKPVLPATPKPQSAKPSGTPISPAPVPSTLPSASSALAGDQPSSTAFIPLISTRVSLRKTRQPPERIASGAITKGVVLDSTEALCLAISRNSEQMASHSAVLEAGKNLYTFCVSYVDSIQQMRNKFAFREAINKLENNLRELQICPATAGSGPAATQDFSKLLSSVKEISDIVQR

Row | effect of a mutation on the interaction | Variant
1 | increasing interaction strength | F1245C
2 | increasing interaction strength | L1196M

Variants of: B1
Conditions: with frk_human FRK

Row | effect of a mutation on the interaction | Variant
3 | increasing interaction strength | F1245C
4 | increasing interaction strength | L1196M

Variants of: B1
Conditions: with sh24b_human SH2D4B

Row | effect of a mutation on the interaction | Variant
5 | increasing interaction strength | F1245C
6 | increasing interaction strength | L1196M

Variants of: B1
Conditions: with srms_human SRMS

Row | effect of a mutation on the interaction | Variant
7 | increasing interaction strength | F1245C
8 | increasing interaction strength | L1196M

Variants of: B1
Conditions: with sta5b_human STAT5B

Row | effect of a mutation on the interaction | Variant
9 | increasing interaction strength | F1245C
10 | increasing interaction strength | L1196M

Variants of: B1
Conditions: with syk_human KARS1, Q15046
Chain of syk_human KARS1, Q15046 (Q15046 whole entry, looked up): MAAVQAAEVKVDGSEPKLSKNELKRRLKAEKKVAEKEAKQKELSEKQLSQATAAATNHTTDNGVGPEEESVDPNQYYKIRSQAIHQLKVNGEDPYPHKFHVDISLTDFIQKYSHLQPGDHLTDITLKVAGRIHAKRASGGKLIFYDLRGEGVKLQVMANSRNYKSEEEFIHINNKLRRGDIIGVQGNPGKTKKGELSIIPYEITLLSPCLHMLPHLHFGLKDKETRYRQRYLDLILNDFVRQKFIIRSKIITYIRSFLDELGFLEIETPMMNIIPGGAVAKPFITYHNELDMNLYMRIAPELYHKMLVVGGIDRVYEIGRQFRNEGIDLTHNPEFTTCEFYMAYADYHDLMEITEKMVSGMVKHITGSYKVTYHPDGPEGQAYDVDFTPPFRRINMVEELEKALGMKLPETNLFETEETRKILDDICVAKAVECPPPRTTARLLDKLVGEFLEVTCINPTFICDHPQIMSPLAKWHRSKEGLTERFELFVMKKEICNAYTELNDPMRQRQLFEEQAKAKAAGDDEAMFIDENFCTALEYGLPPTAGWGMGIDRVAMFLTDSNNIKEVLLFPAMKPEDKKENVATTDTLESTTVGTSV

Row | effect of a mutation on the interaction | Variant
11 | increasing interaction strength | F1245C
12 | increasing interaction strength | L1196M

Variants of: B1
Conditions: with crk_human CRK

Row | effect of a mutation on the interaction | Variant
13 | increasing interaction strength | F1245C
14 | increasing interaction strength | L1196M

Variants of: B1
Conditions: with fgr_human FGR

Row | effect of a mutation on the interaction | Variant
15 | increasing interaction strength | F1245C
16 | increasing interaction strength | L1196M

Variants of: B1
Conditions: with grb14_human GRB14, Q14449
Chain of grb14_human GRB14, Q14449 (Q14449 whole entry): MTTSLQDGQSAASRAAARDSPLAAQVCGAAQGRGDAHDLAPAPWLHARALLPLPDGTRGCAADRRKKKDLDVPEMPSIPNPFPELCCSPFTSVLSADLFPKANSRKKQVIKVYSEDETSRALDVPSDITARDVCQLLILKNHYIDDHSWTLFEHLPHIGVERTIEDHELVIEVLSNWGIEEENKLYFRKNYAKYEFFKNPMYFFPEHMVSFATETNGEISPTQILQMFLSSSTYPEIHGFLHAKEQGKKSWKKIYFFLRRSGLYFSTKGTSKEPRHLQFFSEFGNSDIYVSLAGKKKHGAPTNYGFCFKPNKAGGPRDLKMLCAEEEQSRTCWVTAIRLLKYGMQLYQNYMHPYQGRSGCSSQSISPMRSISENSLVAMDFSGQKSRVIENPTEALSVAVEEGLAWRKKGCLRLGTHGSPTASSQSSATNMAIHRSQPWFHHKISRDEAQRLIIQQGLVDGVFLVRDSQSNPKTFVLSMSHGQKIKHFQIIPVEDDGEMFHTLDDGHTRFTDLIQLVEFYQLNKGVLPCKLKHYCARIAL

Row | effect of a mutation on the interaction | Variant
17 | increasing interaction strength | F1245C
18 | increasing interaction strength | L1196M

Variants of: B1
Conditions: with hck_human HCK

Row | effect of a mutation on the interaction | Variant
19 | increasing interaction strength | F1245C
20 | increasing interaction strength | L1196M

Variants of: B1
Conditions: with lyn_human LYN

Row | effect of a mutation on the interaction | Variant
21 | increasing interaction strength | F1245C
22 | increasing interaction strength | L1196M

Variants of: B1
Conditions: with nck2_human NCK2, O43639
Chain of nck2_human NCK2, O43639 (O43639 whole entry): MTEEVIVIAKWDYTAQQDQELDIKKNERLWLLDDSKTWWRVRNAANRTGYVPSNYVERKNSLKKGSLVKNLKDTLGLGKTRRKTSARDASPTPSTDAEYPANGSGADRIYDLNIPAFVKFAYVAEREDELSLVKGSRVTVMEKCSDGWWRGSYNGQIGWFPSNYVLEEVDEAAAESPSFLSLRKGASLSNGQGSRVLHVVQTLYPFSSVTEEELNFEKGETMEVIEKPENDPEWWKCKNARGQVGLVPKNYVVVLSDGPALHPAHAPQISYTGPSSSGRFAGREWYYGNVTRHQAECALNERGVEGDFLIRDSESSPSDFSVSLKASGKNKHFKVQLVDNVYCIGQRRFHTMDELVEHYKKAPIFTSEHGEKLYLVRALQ

Row | effect of a mutation on the interaction | Variant
23 | increasing interaction strength | F1245C
24 | increasing interaction strength | L1196M

Variants of: B1
Conditions: with sh2b1_human SH2B1, Q9NRF2

Row | effect of a mutation on the interaction | Variant
25 | increasing interaction strength | F1245C
26 | increasing interaction strength | L1196M

Variants of: B1
Conditions: with shb_human SHB

Row | effect of a mutation on the interaction | Variant
27 | increasing interaction strength | F1245C
28 | increasing interaction strength | L1196M

Variants of: B1
Conditions: with socs3_human SOCS3, O14543
Chain of socs3_human SOCS3, O14543 (O14543 whole entry): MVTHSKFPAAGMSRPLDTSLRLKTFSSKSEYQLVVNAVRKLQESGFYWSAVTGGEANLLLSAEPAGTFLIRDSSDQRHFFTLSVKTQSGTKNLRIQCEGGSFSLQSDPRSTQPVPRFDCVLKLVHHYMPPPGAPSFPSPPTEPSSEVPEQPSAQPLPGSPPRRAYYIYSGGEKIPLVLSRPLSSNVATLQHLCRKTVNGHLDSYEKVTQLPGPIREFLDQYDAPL

Row | effect of a mutation on the interaction | Variant
29 | increasing interaction strength | F1245C
30 | increasing interaction strength | L1196M

Variants of: B1
Conditions: with stat2_human STAT2, P52630
Chain of stat2_human STAT2, P52630 (P52630 whole entry): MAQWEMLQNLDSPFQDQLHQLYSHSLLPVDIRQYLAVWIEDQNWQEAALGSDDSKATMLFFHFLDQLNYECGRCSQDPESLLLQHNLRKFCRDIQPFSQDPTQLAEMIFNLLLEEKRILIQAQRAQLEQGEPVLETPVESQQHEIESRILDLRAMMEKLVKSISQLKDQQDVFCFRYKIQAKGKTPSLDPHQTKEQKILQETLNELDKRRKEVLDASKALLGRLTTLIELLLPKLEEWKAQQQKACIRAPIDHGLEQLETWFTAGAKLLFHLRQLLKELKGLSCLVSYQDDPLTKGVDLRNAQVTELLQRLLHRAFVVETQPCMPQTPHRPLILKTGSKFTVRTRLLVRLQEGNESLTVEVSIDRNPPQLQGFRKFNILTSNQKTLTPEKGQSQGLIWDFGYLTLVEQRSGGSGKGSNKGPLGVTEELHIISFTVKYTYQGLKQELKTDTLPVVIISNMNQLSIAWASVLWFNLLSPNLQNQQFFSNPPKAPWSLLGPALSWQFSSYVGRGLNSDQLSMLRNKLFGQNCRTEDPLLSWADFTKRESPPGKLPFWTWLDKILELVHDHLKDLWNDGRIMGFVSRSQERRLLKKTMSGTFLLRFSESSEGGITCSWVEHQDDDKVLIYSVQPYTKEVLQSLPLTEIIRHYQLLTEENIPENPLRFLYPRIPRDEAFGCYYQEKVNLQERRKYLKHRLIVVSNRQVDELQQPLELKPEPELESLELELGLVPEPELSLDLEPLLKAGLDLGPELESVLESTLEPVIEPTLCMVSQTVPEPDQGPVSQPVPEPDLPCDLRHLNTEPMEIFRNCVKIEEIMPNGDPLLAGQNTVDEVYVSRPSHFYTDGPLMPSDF

Row | effect of a mutation on the interaction | Variant
31 | increasing interaction strength | F1245C
32 | increasing interaction strength | L1196M

Variants of: B1
Conditions: with zap70_human ZAP70, P43403
Chain of zap70_human ZAP70, P43403 (P43403 whole entry): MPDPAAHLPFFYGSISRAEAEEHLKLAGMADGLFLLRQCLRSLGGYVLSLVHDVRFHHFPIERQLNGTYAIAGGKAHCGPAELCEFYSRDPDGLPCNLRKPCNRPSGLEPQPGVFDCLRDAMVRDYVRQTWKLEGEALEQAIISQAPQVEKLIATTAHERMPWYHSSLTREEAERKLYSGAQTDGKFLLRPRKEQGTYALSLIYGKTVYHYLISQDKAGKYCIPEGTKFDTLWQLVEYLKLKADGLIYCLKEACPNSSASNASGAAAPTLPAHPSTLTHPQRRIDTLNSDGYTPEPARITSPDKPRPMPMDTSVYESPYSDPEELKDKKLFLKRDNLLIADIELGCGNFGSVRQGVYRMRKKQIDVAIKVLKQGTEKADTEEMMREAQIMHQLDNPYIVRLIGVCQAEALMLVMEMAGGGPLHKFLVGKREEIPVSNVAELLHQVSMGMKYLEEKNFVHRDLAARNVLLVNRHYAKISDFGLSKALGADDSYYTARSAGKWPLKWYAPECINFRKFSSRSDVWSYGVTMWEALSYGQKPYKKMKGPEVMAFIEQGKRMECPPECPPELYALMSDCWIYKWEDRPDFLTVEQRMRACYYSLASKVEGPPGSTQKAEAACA

Row | effect of a mutation on the interaction | Variant
33 | increasing interaction strength | F1245C
34 | increasing interaction strength | L1196M

Variants of: B1
Conditions: with rack1_human RACK1, P63244

Row | effect of a mutation on the interaction | Variant
35 | increasing interaction strength | F1245C
36 | increasing interaction strength | L1196M

Variants of: B2
Conditions: with pdli3_human PDLIM3, Q53GG5

Row | effect of a mutation on the interaction | Variant
37 | increasing interaction strength | L1196M
38 | decreasing interaction strength | I1250T
39 | increasing interaction strength | F1245C

Variants of: B3
Conditions: with shd_human SHD

Row | effect of a mutation on the interaction | Variant
40 | increasing interaction strength | F1245C
41 | decreasing interaction strength | I1250T
42 | increasing interaction strength | L1196M

Variants of: B4
Conditions: with grap2_human GRAP2, O75791

Row | effect of a mutation on the interaction | Variant
43 | decreasing interaction strength | I1250T
44 | increasing interaction strength | F1245C
45 | increasing interaction strength | L1196M
